From a protein production outcome set (Wang et al. 2014)

Experiment: label from the status in PepcDB records
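Note: failed if final PepcDB status was selected cloned or expressed and not failed if soluble or beyond.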

| Sequence | protein production |
| --- | --- |
| MAASAAATAAASAATAASAASGSPGSGEGSAGGEKRPAASSAAAASAAASSPAGGGGEAQELLEHCGVCRERLRPERDPRLLPCLHSACSACLGPATPAAANNSGDGGSAGDGAMVDCPVCKQQCYSKDIVENYFMRDSGSKASSDSQDANQCCTSCEDNAPATSYCVECSEPLCETCVEAHQRVKYTKDHTVRSTGPAKTRDGERTVYCNVHKHEPLVLFCESCDTLTCRDCQLNAHKDHQYQFLEDAVRNQRKLLASLVKRLGDKHATLQKNTKEVRSSIRQVSDVQKRVQVDVKMAILQIMKELNKRGRVLVNDAQKVTEGQQERLERQHWTMTKIQKHQEHILRFASWALESDNNTALLLSKKLIYFQLHRALKMIVDPVEPHGEMKFQWDLNAWTKSAEAFGKIVAERPGTNSTGPGPMAPPRAPGPLSKQGSGSSQPMEVQEGYGFGSDDPYSSAEPHVSGMKRSRSGEGEVSGLLRKVPRVSLERLDLDLTSDSQPPVFKVFPGSTTEDYNLIVIERGAAAAAAGQAGTVPPGAPGAPPLPGMAIVKEEETEAAIGAPPAAPEGPETKPVLMPLTEGPGAEGPRLASPSGSTSSGLEVVAPEVTSAPVSGPGILDDSATICRVCQKPGDLVMCNQCEFCFHLDCHLPALQDVPGEEWSCSLCHVLPDLKEEDGSLSLDGADSTGVVAKLSPANQRKCERVLLALFCHEPCRPLHQLATDSTFSMEQPGGTLDLTLIRARLQEKLSPPYSSPQEFAQDVGRMFKQFNKLTEDKADVQSIIGLQRFFETRMNDAFGDTKFSAVLVEPPPLNLPSAGLSSQELSGPGDGP | not failed |
| MIRVGYLGPEATFTNMAVSRFFPEAEHVPYRTIPDCMDAAANGNVDYAVVPLENAIEGSVNITIDYLVHEQPLSIVGEITVPIQQHLLVHPQYAEVWEEVYAVHSHPHAIAQCHKFLNEELKGITARDMTSTSAAAQYVKEHPEEKIAAIANEAAAEKYGLTIVRRSIHTHKNNHTRFLVLHKKKKAILSNNGENRGEKTTLMITLPADYAGALYQVLSAFAWRKLNLSKIESRPMKTGLGNYFFLIDVDKAYDDVLLPGVTMELEALGFSVTVLGSYSSYWL | failed |
| AIQVFDVTAVNISATSLTLIWKVSDNESSSNYTYKIHVAGETDSSNLNVSEPRAVIPGLRSSTFYNITVCPVLGDIEGTPGFLQVHTPPVP | not failed |
| MFIREEEQMKRMIITIGRQSGSSGRKVGELLAERLSLPLYGKAELQKIAEGTDDYEEVQAFYEEEPVNSLLYAIAMSQFEQEVGRIPFQRIRELASKESCIIIGRCAGHIFREDPEAVRVFIHADPKIRVQRIMEREGLSETKAKKFLEDTDSRRASFHKYYTKQEWGLAQDYELCLDSGVLGIEGTVEVLTEYLRFRGFLGNE | failed |
| MDIIRKISHFAGQTFGIWVIVFAVLGFSFPSLFTWISSYITIFLGIIMFGMGLTLQADDFKELVRKPWQVIIGVIAQYTIMPLVAFGLAFGLHLPAEIAVGVILVGCCPGGTASNVMTFLAKGNTALSVAVTTISTLLAPVVTPLLIMLFAKEWLPVSPGSLFISILQAVLFPIIAGLIVKMFFRKQVAKAVHALPLVSVIGIVAIVSAVVSGNRENLLQSGLLIFSVVILHNGIGYLLGFLCAKLLKMDYPSQKAIAIEVGMQNSGLGAALATAHFSPLSAVPSAIFSVWHNLSGSMLATYWSKKVKKKQAGSKSSNLSL | failed |
| MIPTATYRLQFRNGMTFDRAAALVPYLKNLGISHLYASPIFTATKASTHGYDVTDANEIEPSIGGREGFERLVAELKAQGLGLIIDIVPNHMASSLENAWWRDVLEYGKESRYARHFDIDWSRRLTLPFLGDTFDAVLENGEIAIKPDPATGKPAFAYYDNYYPLAPATWQGREAEILALTDKAAIADLHERQPWKLMSWRDAARSLSYRRFFEVTGLVGMRVEDKTVFDDTHRLILELVRTGAVDGLRIDHIDGLADPKAYLARLRQEVGPACYITVEKILAKGEQLPDDWPVSGTTGYEFIASLAEVLVDDEQIDNLRQAYETVKGAPVDMRAELRAAKLLMVDRNFEGEFTRLLALALSIASELQIAQEESVVRQALRELLIAFPVYRTYGTAEGLPPTDICLLHRIVERVKTLETPPQPEALTFLSRLLTGDVPASSQEEATQFRVRFQQLTGPLMAKSVEDTLFFRQNMGLALNEVGAEPVTHHFSIERFHHEMKTRQARQPDALSGTSTHDTKRGEDARARLYTLTEAPEQWSECLARWRQMNQTHVKFLNDGTAPKSADTWMLYQALTGVWPPVLQPQDETGLNALKTRFEAFVEKALREAKLRTDWVDSNEAYETAMLDYARYLLAPDNQTFLQDFYRSLQPFIRAGLVNSLTQTVIKLTAPGVPDIYQGSEALNFSLVDPDNRREPDFATLAQQLDQLTPGVFSREESWLNGQVNQYVTAALLRLRQQNHELFRFGDYIPLRAVGQRADKVIAYARVNHDDALIVVAPRLVFAECDGLLSQSHSGFWSGTDIIIPGQLNQHRYRNVLTQERLMPGERLSLASHQGGVLVLMSD | failed |
| MKDNPISPTIPLDQDGVHHGFLKLPYSRDDSAWGSVMIPITVIQNGAGKTALLTGANHGDEYEGPVALQELAATTRAEDVTGRLIIVPYFNYPAFRASARTSPIDRGNLNRAFPGRPDGTVTQKIADYFQRTLLPMADVAVDFHSGGKTLDFVPFAAAHILEDKVLQDACFAAMQAFNAPYSVQLLEIDSEGMYDTAVEEMGKVLVTTELGGGGMSTARSNAIAKKGLRNVLIHFGILQGEMQIDPSVTLDMPDGDCYLFSEHDGLFEIMIDLGEPVQEGDLVARVWSPDRTGEAPVEYRARRSGVLISRHFPGMIKSGDCAAVIGVVEG | not failed |
| MKKLINRVDDVLSEQLQGFAKAHPEINLHPSSFYVTRHDAPVKGKVALLSGGGSGHEPMHAGFVGKGMLDGACPGEIFTSPTPDKMYDCAKAIDSGEGVLMIVKNYTGDVLNFETATELLHDEGVKIATVLVDDDVAVKDSLYTAGRRGVANTVLMEKLLGAAAERGDTLDDLVKLGHQINNNGFSIGIALQACTVPAAGKPSFTLPENEMEFGVGIHGEPGIDRRPFTSLNDTVDAMFNTLIENGHYQRTIRSWDRVNGDWIEETQEKQPLKSGDRVIALVNNLGATPLSELYGVYHRLALCCENFGLNIERSLIGSYCTSLDMSGISITLLKVDDALLTLWDAPVATPAMTK | failed |
| MSLGNNSAKGTATGNATALWRNAQLATLNPAMDGIGAVENAVIAVRNGRIAFAGPESDLPDDLSTADETTDCGGRWITPALIDCHTHLVFGGNRAMEFEMRLNGATYEEIAKAGGGIVSSVRDTRALSDEVLVAQALPRLDTLLSEGVSTIEIKSGYGLDIETELKMLRVARRLETLRPVRIVTSYLAAHATPADYKGRNADYITDVVLPGLEKAHAEGLADAVDGFCEGIAFSVKEIDRVFAAAQQRGLPVKLHAEQLSNLGGAELAASYNALSADHLEYLDETGAKALAKAGTVAVLLPGAFYALREKQLPPVQALRDAGAEIALATDCNPGTSPLTSLLLTMNMGATLFRMTVEECLTATTRNAAKALGLLAETGTLEAGKSADFAIWDIERPAELVYRIGFNPLHARIFKGQKVSPEGHHHHHH | not failed |
| MLTVRNHPGVMSHICGLFARRAFNVDGILCMPLAGGEESRIWLQVLDDQRLQQMISQLEKLEDVLQVCRFDSEMPIFDQVEDLVAHQR | not failed |
| MNQTSSHSSLFSSSLPPVPDRPLSPSGRFNRLSYLAWYGFINLIGLMCLFGTGLIMGIFSLSQVTWDDQLLNALSGSFGFIMFGISILFFYFHVVLMIRRLHDTNRSGWWCLLFFVPVIQFILILYLLFIPGSKASNDYGIPRPSPVWEKILGWMIVIVLLLSLLMLGRLVSFMLGTGHLDFPQELIPKNTGYF | failed |
| MIMVSGCQQQKEETPFYYGTWDEGRAPGPTDGVKSATVTFTEDEVVETEVMEGRGEVQLPFMAYKVISQSTDGSIEIQYLGPYYPLKSTLKRGENGTLIWEQNGQRKTMTRIESKTGREEKDEKSKSLEHHHHHH | not failed |
| MNLTFDYTKEPSRDVFCIDVKSFYASVECVERGLDPLKTMLVVMSNSENSGGLVLAASPMAKKVLGISNVTRKNEVPDHPNLIIVPPRMKLYMKKNQEINNLYKRFVSDEDHSVFSVDESFLDVTASLTYFKCDTAYKLAKIIQRVIYNHMGLYVTIGIGENPLLAKLALDNEAKNAPGFVAEWRYEDVPEKVWPISPLTEFCGIGNRMAARLKKLGIRSIYDLAHIEPYMLKERFGIMGLQLYAHSWGIDRSFLGQKAGRPTEKSFGNSQVLPKDYANKEQIKLVLKELSDQVASRLRMASCQTTCVSLFVGYSKGQTDKYGQTGWRRQMKVEPSNNTKVLTEHVLRLFEENYAPGVDVRNLGVSYGRLVWNKNLQLDLFSVPEEQIHETDMYFLIDKIRQKFGFKALIHASSLMEGATAISRASLVGGHAGGTVGLGTTK | failed |
| MEIGLSLGLKSDEGGLKLSLSECGCHVEDITIELEGGASWFYQGMVNAFKDQIGSSVESTIAKKLTEGVSDLDSFLQSLPKEIPVDDNADLNVTFTSDPILRNSSITFEIDGLFTKGETNQVLKSFFKKSVSLVICPGNSKMLGISVDEAVFNSAAALYYNADFVQWVVDKIPEQSLLNTARWRFIIPQLYKKYPNQDMNLNISLSSPPLVKISEQYVGANVNADLVINVLDANQVIPVACISLMIRGSGALRVMGNNLGGSVSLEDFSMSLKWSNIGNLHLHLLQPIVWTVIQTVFVPYANDHLEKGFPLPIMHGFTLQNAEIICSESEITVCSDVAYLDSSQQPQWL | failed |
| DNYRTTGIATIEVFLPPRLKKDRKNLLETRLHITGRELRSKIAETFGLQENYIKIVINKKQLQLGKTLEEQGVAHNVKAMVLELKQS | not failed |
| MRIVIAGGHGQIALRLERLLAARGDEVAGIVRKAEQADDLRAAGAEPVVLDLESASVEEVAERLRGADAAVFAAGAGPGSGVARKDTVDKAAAVLFADAAVRAGVRRFLIVSSMGADPGHQGDEIFDVYLRAKGEADAYVSSLDALDWTILRPGALTDDAGTGLVRLEAHTGRGPVPRDDVAAVLAELVDTPATNGLALELISGSAPVSVAVKSVAGN | failed |
| MNIFIAGLNYNMSEAELGELFAEYGEVVSVKIIMDRETGRSKGYGFVEMADDEAGDKAIAALNEVDMDGKTLSVSVARPREERPRRSYGNNGGGGYRGGNNSRGGGYGGSRGDNGYGGGRNRY | failed |
| MGMTVVIILVFSFFVAIVTAETSPYIIHMDLSAKPLPFSDHRSWFSTTLTSVITNRKPKIIYAYTDSVHGFSAVLTNSELQRLKHKPGYVSFTKDLPVKLHTTFSPKFIGLNSTSGTWPVSNYGAGIVIGIIDTGIWPDSPSFHDDGVGSVPSKWKGACEFNSSSLCNKKLIGAKVFNKGLFANNPDLRETKIGQYSSPYDTIGHGTHVAAIAAGNHVKNASYFSYAQGTASGIAPHAHLAIYKAAWEEGIYSSDVIAAIDQAIRDGVHVISLSLGLSFEDDDDNDGFGLENDPIAVASFAAIQKGVFVVTSGGNDGPYYWSLINGAPWIMTVGAGTIGRQFQGTLTFGNRVSFSFPSLFPGEFPSVQFPVTYIESGSVENKTLANRIVVCNENINIGSKLHQIRSTGAAAVVLITDKLLEEQDTIKFQFPVAFIGSKHRETIESYASSNKNNATAKLEFRKTVIGTKPAPEVGTYSSRGPFTSFPQILKPDILAPGTLILSAWPSVEQITGTRALPLFSGFNLLTGTSMAAPHVAGVAALIKQVHPNWSPSAIKSAIMTTALTLDNPLAVGAGHVSTNKVLNPGLIYDTTPQDFINFLCHEAKQSRKLINIITRSNISDACKKPSPYLNYPSIIAYFTSDQSSPKIFKRTLTNVGEAKRSYIVRVRGLKGLNVVVEPKKLMFSEKNEKLSYTVRLESPRGLQENVVYGLVSWVDEDEAEFEVSCSVVATSLVQES | failed |
